Consider three molecules from patent US20240360194A1, “New Peptides as Potent and Selective GIP Receptor Agonists” (Sanofi, priority 2021, published 2024).

Numbered stars: 1 amine (or outer) side, 2 acyl side, 3 side chain; on linkers, the order of the positions; unused ones are H or OH. Square brackets hold non-standard residues; d marks the D form. Side chains are listed from the residue outwards. Ends that are not written are not given here. * marks the point of attachment. C18 diacid = O=C(O)CCCCCCCCCCCCCCCCC(=O)*; γGlu = O=C(O)[C@H](CCC(=O)[*:2])N[*:1]; Iva = CC[C@](C)(N)C(=O)O; Abu = CC[C@H](N)C(=O)O; AEEA = NCCOCCOCC(=O)O; Aib = CC(C)(N)C(=O)O Where only a bound is given, the exact number is not on record here.

First the molecules themselves.
T1: human GIP receptor (human, UniProt P48546 22-466)
T1 sequence (looked up): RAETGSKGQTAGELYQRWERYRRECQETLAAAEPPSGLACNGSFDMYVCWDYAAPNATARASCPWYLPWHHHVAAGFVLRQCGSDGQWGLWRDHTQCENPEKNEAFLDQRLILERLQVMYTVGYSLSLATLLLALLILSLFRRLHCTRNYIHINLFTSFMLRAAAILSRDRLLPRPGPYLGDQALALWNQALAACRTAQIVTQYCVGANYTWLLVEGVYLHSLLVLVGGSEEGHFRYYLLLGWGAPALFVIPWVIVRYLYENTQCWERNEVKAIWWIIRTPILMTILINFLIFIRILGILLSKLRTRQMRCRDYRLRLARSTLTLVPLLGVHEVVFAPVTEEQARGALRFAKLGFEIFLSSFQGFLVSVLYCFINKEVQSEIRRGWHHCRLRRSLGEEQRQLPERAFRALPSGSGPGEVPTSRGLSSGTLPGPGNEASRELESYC

B1: SEQ ID NO: 28 (peptide)
peptide: Y[Aib]EGTFISDLSI[Aib]K([AEEA-AEEA-γGlu-C18 diacid])DRIHQEEFIEWLLAQEPSSGAPPPS-OH
modifications: N-terminus assumed
SMILES: CC[C@H](C)[C@H](NC(=O)[C@H](Cc1ccccc1)NC(=O)[C@H](CCC(=O)O)NC(=O)[C@H](CCC(=O)O)NC(=O)[C@H](CCC(N)=O)NC(=O)[C@H](Cc1c[nH]cn1)NC(=O)[C@@H](NC(=O)[C@H](CCCNC(=N)N)NC(=O)[C@H](CC(=O)O)NC(=O)[C@H](CCCCNC(=O)COCCOCCNC(=O)COCCOCCNC(=O)CC[C@H](NC(=O)CCCCCCCCCCCCCCCCC(=O)O)C(=O)O)NC(=O)C(C)(C)NC(=O)[C@@H](NC(=O)[C@H](CO)NC(=O)[C@H](CC(C)C)NC(=O)[C@H](CC(=O)O)NC(=O)[C@H](CO)NC(=O)[C@@H](NC(=O)[C@H](Cc1ccccc1)NC(=O)[C@@H](NC(=O)CNC(=O)[C@H](CCC(=O)O)NC(=O)C(C)(C)NC(=O)[C@@H](N)Cc1ccc(O)cc1)[C@@H](C)O)[C@@H](C)CC)[C@@H](C)CC)[C@@H](C)CC)C(=O)N[C@@H](CCC(=O)O)C(=O)N[C@@H](Cc1c[nH]c2ccccc12)C(=O)N[C@@H](CC(C)C)C(=O)N[C@@H](CC(C)C)C(=O)N[C@@H](C)C(=O)N[C@@H](CCC(N)=O)C(=O)N[C@@H](CCC(=O)O)C(=O)N1CCC[C@H]1C(=O)N[C@@H](CO)C(=O)N[C@@H](CO)C(=O)NCC(=O)N[C@@H](C)C(=O)N1CCC[C@H]1C(=O)N1CCC[C@H]1C(=O)N1CCC[C@H]1C(=O)N[C@@H](CO)C(=O)O
notes: Synthetic peptide, 39 residues (Glu at 30)
B2: SEQ ID NO: 25 (peptide)
peptide: H-Y[Aib]EGT[Abu]ISDLSI[Aib]K([AEEA-AEEA-γGlu-C18 diacid])DRIHQEEFIEWLLAQGPSSGAPPPS-NH2
SMILES: CC[C@H](NC(=O)[C@@H](NC(=O)CNC(=O)[C@H](CCC(=O)O)NC(=O)C(C)(C)NC(=O)[C@@H](N)Cc1ccc(O)cc1)[C@@H](C)O)C(=O)N[C@H](C(=O)N[C@@H](CO)C(=O)N[C@@H](CC(=O)O)C(=O)N[C@@H](CC(C)C)C(=O)N[C@@H](CO)C(=O)N[C@H](C(=O)NC(C)(C)C(=O)N[C@@H](CCCCNC(=O)COCCOCCNC(=O)COCCOCCNC(=O)CC[C@H](NC(=O)CCCCCCCCCCCCCCCCC(=O)O)C(=O)O)C(=O)N[C@@H](CC(=O)O)C(=O)N[C@@H](CCCNC(=N)N)C(=O)N[C@H](C(=O)N[C@@H](Cc1c[nH]cn1)C(=O)N[C@@H](CCC(N)=O)C(=O)N[C@@H](CCC(=O)O)C(=O)N[C@@H](CCC(=O)O)C(=O)N[C@@H](Cc1ccccc1)C(=O)N[C@H](C(=O)N[C@@H](CCC(=O)O)C(=O)N[C@@H](Cc1c[nH]c2ccccc12)C(=O)N[C@@H](CC(C)C)C(=O)N[C@@H](CC(C)C)C(=O)N[C@@H](C)C(=O)N[C@@H](CCC(N)=O)C(=O)NCC(=O)N1CCC[C@H]1C(=O)N[C@@H](CO)C(=O)N[C@@H](CO)C(=O)NCC(=O)N[C@@H](C)C(=O)N1CCC[C@H]1C(=O)N1CCC[C@H]1C(=O)N1CCC[C@H]1C(=O)N[C@@H](CO)C(N)=O)[C@@H](C)CC)[C@@H](C)CC)[C@@H](C)CC)[C@@H](C)CC
notes: Synthetic peptide, 39 residues

In one experiment the target is T2, human GLP-1 receptor (human, UniProt P43220 24-463).
T2 construct: whole, on cells; also called hGLP-1R; hGLP-1 R
The experiment can be described thus: displacement of [125I]GLP-1 from HEK-293 membranes expressing hGLP-1R (SPA beads).
H-Y[Aib]EGT[Iva]ISDLSI[Aib]K([AEEA-AEEA-γGlu-C18 diacid])DRIHQ[Aib]EFIEWLLAQGPSSGAPPPS-NH2 (Synthetic peptide, 39 residues) [SEQ ID NO: 23] gave an IC50 of 259 nM.

Turning to B1, the IC50 was 426 nM.

In the case of B2, the IC50 came to 417 nM. The IC50 values of the last two molecules are within 1.5-fold of each other.

A further experiment concerns the target T1, human GIP receptor. Kind of experiment: cell-based or functional assay.
For H-Y[Aib]EGT[Iva]ISDLSI[Aib]K([AEEA-AEEA-γGlu-C18 diacid])DRIHQ[Aib]EFIEWLLAQGPSSGAPPPS-NH2 (Synthetic peptide, 39 residues) [SEQ ID NO: 23], the “hGIPR EC50 (cAMP, human adipocytes)” value was 0.2 nM and the “hGIPR Emax (cAMP, human adipocytes)” value turned out to be 91%.

Consider B1, for which the “hGIPR EC50 (cAMP, human adipocytes)” value is 0.5 nM and the “hGIPR Emax (cAMP, human adipocytes)” value was 103%.

Consider B2, for which the “hGIPR EC50 (cAMP, human adipocytes)” value amounted to 0.2 nM and the “hGIPR Emax (cAMP, human adipocytes)” value amounted to 112%.

Another experiment addresses T1, human GIP receptor. The experiment can be described thus: cell-based or functional assay. The source holds these as a separate data set.
H-Y[Aib]EGT[Iva]ISDLSI[Aib]K([AEEA-AEEA-γGlu-C18 diacid])DRIHQ[Aib]EFIEWLLAQGPSSGAPPPS-NH2 (Synthetic peptide, 39 residues) [SEQ ID NO: 23]: the “EC50 hGIPR 0% HSA (cAMP, HEK-293)” value was 0.00027 nM and the “EC50 hGIPR 0.1% BSA (cAMP, HEK-293)” value is 0.0177 nM.

Consider B1, for which the “EC50 hGIPR 0% HSA (cAMP, HEK-293)” value was determined as 0.00073 nM and the “EC50 hGIPR 0.1% BSA (cAMP, HEK-293)” value amounted to 0.0647 nM.

With B2, the “EC50 hGIPR 0% HSA (cAMP, HEK-293)” value was 0.00028 nM and the “EC50 hGIPR 0.1% BSA (cAMP, HEK-293)” value came out at 0.0144 nM.

For the next experiment, the target named is T2, human GLP-1 receptor. Kind of experiment: cell-based or functional assay.
Consider H-Y[Aib]EGT[Iva]ISDLSI[Aib]K([AEEA-AEEA-γGlu-C18 diacid])DRIHQ[Aib]EFIEWLLAQGPSSGAPPPS-NH2 (Synthetic peptide, 39 residues) [SEQ ID NO: 23], for which the “EC50 hGLP-1R 0.1% BSA (cAMP, HEK-293)” value was over 10 nM.

As for B1, the “EC50 hGLP-1R 0.1% BSA (cAMP, HEK-293)” value was over 10 nM.

As to B2, the “EC50 hGLP-1R 0.1% BSA (cAMP, HEK-293)” value was over 10 nM.
